The values that follow come from paper PMC6884004.

In test [1] the target is synthetic MTED peptide (MT elimination domain of Drosophila Efa6) (Drosophila melanogaster). In words: pull-down; MTED or scrambled peptide coupled via the N-terminal amine to cyanogen bromide-activated Sepharose beads (5 ng peptide/μl beads); 15 μM porcine brain tubulin (un-polymerised GDP-tubulin); BRB80 with 0.2% Tween 20, 30 min, 20°C; five washes; SDS-PAGE band intensity compared with uncoated beads.

The target of test [2] is Full length human MCAK (mitotic centromere-associated kinesin) (human) (UniProt Q99661). In words: pull-down; full length human MCAK coupled (1 µg/µl beads) to cyanogen bromide-activated Sepharose beads via lysines or the N-terminal amine; beads pre-incubated with 5 mM AMPPNP or ADP for 30 min at 20°C; 15 μM porcine brain tubulin, 30 min, 20°C; nucleotide kept in the washing buffer; SDS-PAGE band intensity compared with uncoated beads.

The target of test [3] is porcine brain tubulin (un-polymerised GDP-tubulin) (porcine) (UniProt P02550).
In test [4] the target is GMPCPP-stabilised, rhodamine-labeled microtubules grown from porcine brain tubulin (porcine) (UniProt P02550). In words: TIRF microscopy of GFP-tagged protein on surface-adhered microtubules; GMPCPP-stabilised rhodamine-labeled MTs adhered to flow chambers; 20 nM Efa6-ΔCterm::GFP in BRB20 pH 6.9, 75 mM KCl, 0.05% Tween20, 0.1 mg/ml BSA, or 20 nM MCAK::GFP in the same buffer plus 1 mM ATP and 1 mM taxol; mean GFP intensity on individual MTs.

Regarding “porcine brain tubulin (un-polymerised GDP-tubulin) (from UniProt P02550 1-451; P02554 1-445) (complex)”, in test [1], the fold tubulin pulled down against beads coated with scrambled peptide was 5 fold and the fold tubulin pulled down against uncoated beads stood at 3 fold. For the same molecule, in test [2], the fold tubulin pulled down against uncoated beads (with AMPPNP or ADP) turned out to be 1.5 fold.

B1: synthetic MTED peptide (MT elimination domain of Drosophila Efa6) (peptide)
peptide: APRFEAYMMTGDLILNLSRT
As to B1, the fold decrease in amount of MT polymer in the MT growth assay (30 μM tubulin with 30 μM MTED peptide, against no peptide) in test [3] is 10 fold.

B2: MCAK::GFP (His6-MCAK::EGFP-StrepII) (enzyme)
chain: MAMDSSLQARLFPGLAIKIQRSNGLIHSANVRTVNLEKSCVSVEWAEGGATKGKEIDFDDVAAINPELLQLLPLHPKDNLPLQENVTIQKQKRRSVNSKIPAPKESLRSRSTRMSTVSELRITAQENDMEVELPAAANSRKQFSVPPAPTRPSCPAVAEIPLRMVSEEMEEQVHSIRGSSSANPVNSVRRKSCLVKEVEKMKNKREEKKAQNSEMRMKRAQEYDSSFPNWEFARMIKEFRATLECHPLTMTDPIEEHRICVCVRKRPLNKQELAKKEIDVISIPSKCLLLVHEPKLKVDLTKYLENQAFCFDFAFDETASNEVVYRFTARPLVQTIFEGGKATCFAYGQTGSGKTHTMGGDLSGKAQNASKGIYAMASRDVFLLKNQPCYRKLGLEVYVTFFEIYNGKLFDLLNKKAKLRVLEDGKQQVQVVGLQEHLVNSADDVIKMIDMGSACRTSGQTFANSNSSRSHACFQIILRAKGRMHGKFSLVDLAGNERGADTSSADRQTRMEGAEINKSLLALKECIRALGQNKAHTPFRESKLTQVLRDSFIGENSRTCMIATISPGISSCEYTLNTLRYADRVKELSPHSGPSGEQLIQMETEEMEACSNGALIPGNLSKEEEELSSQMSSFNEAMTQIRELEEKAMEELKEIIQQGPDWLELSEMTEQPDYDLETFVNKAESALAQQAKHFSALRDVIKALRLAMQLEEQASRQISSKKRPQ
Take B2: the fold of molecules on MTs against Efa6-ΔCterm::GFP at the same concentration in test [4] is above 2 fold.
